# Data published in the Immune Epitope Database (IEDB).
# Target: HLA-A*02:01
# Assay: IEDB peptide-MHC binding, cellular MHC/competitive/fluorescence; ≥ and ≤ were set here for values at or beyond the usual limits of such assays
# Conditions: source organism: Human herpesvirus 5 strain AD169
row,Sequence,IC50 [µM]
1,MLNIPSINV,2.5
2,ALFFFDIDL,2
3,RLLQTGIHV,2
4,NLLMNGQQI,5
5,YLESFCEDV,16
6,ILARNLVPMV,1
7,GLSISGNLL,16
8,LLQTGIHVRV,5
9,SIYVYALPL,5
10,DIYRIFAEL,12
11,VLCPKNMII,12
